Experimental findings from patent publication US20210277137A1 (AbbVie / Abbott, published 2021) are described below.

Numbering of substitutions follows the chain as printed.

In assay [1] the target is T1, CD40-human Fc (huFc) fusion protein (Creative BioMart) (human, UniProt P25942 21-193).
T1 construct: bought; also called CD40-huFc; not shown: human Fc
Briefly: ELISA: CD40-huFc mixed with antibody, binding to plate-bound HA-tagged CD40L. Also: test concentration or dose not given here. The source says: After development with TMB (3, 3′, 5, 5′-tetramethylbenzidine) substrate, the plates were read at OD₄₅₀.
On the technique in general: An ELISA detects its analyte on a solid surface through an enzyme-linked reagent.

In assay [2] the target is T2, human CD40 on cells (human, UniProt P25942 21-277). Briefly: cell-based or functional assay.
T2 sequence (P25942 21-277 limits assumed): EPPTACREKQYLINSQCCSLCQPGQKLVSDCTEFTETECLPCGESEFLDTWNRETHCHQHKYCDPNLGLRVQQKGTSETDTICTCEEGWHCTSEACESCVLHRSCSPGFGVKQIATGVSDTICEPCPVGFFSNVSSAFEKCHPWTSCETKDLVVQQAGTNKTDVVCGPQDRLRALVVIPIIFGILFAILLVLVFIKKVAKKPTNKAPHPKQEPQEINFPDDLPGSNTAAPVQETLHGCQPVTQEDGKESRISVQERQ
Assay [3] concerns the target T2, human CD40 on cells. Kind of assay: cell-based or functional assay. This is another data set of the same source.
Assay [4] deals with T2, human CD40 on cells. Kind of assay: cell-based or functional assay. This is another data set of the same source.
For moDC activation (IL-12p70, pg/mL) in this document: test concentration or dose not given here.

T1 sequence (P25942 21-193 limits assumed): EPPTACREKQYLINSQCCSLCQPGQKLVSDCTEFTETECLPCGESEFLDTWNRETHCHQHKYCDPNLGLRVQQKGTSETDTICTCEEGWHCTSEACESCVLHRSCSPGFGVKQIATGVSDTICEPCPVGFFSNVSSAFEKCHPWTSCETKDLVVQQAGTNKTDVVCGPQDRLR

B1: AD163.7.2 (antibody, V domains shown)
VH: QVQLQQSGPELVKSGASVKISCKASGYTFTDYYINWVKQRPGQGLEWIGWIFPGSGSVYCNEQFKGQATLTVDRSSSTAYMLLSSLTSEDSAVYFCASSLGKFAYWGQGTLVTVSA
VL: DIVMTQSQKFMSTTVGDRVSITCKASQSVVTAVAWYQQKPGQSPKLLIYSASNRYTGVPDRFTGSGSGTDFALTIRTMQSEDLADYFCQQYSSYPYTFGGGTKLEIK
notes: mouse hybridoma monoclonal; also called muAb8
On to B1, for which, in assay [1], the “OD450 Ratio” value is 0.08 ratio to isotype control and the “OD450 with anti-CD40 antibody” value was found to be 0.066 OD450. For the same molecule, the “moDC activation (IL-12p70, pg/mL)” value in assay [2] is 905 pg/mL.

B2: AD163.162.1 (antibody, V domains shown)
VH: QVQLQQPGAELVRPGSSVKLSCKASGYTFTSYWMHWVKQRPIQGLEWIGNIDPSNGETHYNQKFKDKATLTVDKSSSTAYMQLSSLTSEDSAVYYCARERIYYSGSTYDGYFDVWGTGTTVTVSS
VL: QIVLTQSPAIMSASPGEKVTMTCSASSSLSYMHWYQQKSGTSPKRWIYDTSKLASGVPARFSGSGSGTSYSLTISSMEAEDAATYYCQQWSSNPWTFGGGTKLEIK
notes: mouse hybridoma monoclonal; also called muAb6
For the molecule B2, in assay [1], the “OD450 Ratio” value is 0.57 ratio to isotype control and the “OD450 with anti-CD40 antibody” value was 0.455 OD450. For the same molecule, the “moDC activation (IL-12p70, pg/mL)” value in assay [2] amounted to 2160 pg/mL.

B3: AD163.27.12 (antibody, V domains shown)
VH: B2 VH
VL: B2 VL with A79G, A82G
notes: mouse hybridoma monoclonal; same VH as muAb6; also called muAb7
For the molecule B3, in assay [1], the “OD450 Ratio” value was 0.41 ratio to isotype control and the “OD450 with anti-CD40 antibody” value turned out to be 0.328 OD450. Moreover, in assay [2], the “moDC activation (IL-12p70, pg/mL)” value was 1510 pg/mL.

B4: Humanized muAb9 #1 (antibody, V domains shown)
VH: EVQLQESGPGLVKPSETLSLTCTVSGYSITSNYYWNWIRQPPGKGLEWMGYIRYDGSNNYNPSLKNRITISRDTSKNQFSLKLSSVTAADTAVYYCARLDYWGQGTTVTVSS
VL: DAVMTQTPLSLSVTPGQPASISCRSSQSLENTNGNTFLNWFLQKPGQSPQLLIYRVSNRFSGVPDRFSGSGSGTDFTLKISRVEAEDVGVYFCLQVTHVPFTFGQGTKLEIK
With B4, in assay [3], the “Maximal activation (OD655) in HEK293 blue CD40 NFκB reporter cells” value (“Maximal activation (OD655)” below) was found to be 0.26 OD655 and the “NFκB activation EC50 (SEAP, OD655) in HEK293 blue CD40 NFκB reporter cells” value (“NFκB activation EC50 (SEAP, OD655)” for short) amounted to 0.19 µg/mL.

B5: Humanized muAb9 #3 (antibody, V domains shown)
VH: B4 VH with T30S, N66S, I68V
VL: B4 VL
Regarding B5, in assay [3], the “Maximal activation (OD655)” value is 0.27 OD655 and the “NFκB activation EC50 (SEAP, OD655)” value is 0.18 µg/mL.

B6: AD164.76.3 (antibody, V domains shown)
VH: DVQLQESGPGLVKPSQSLSLTCSVTGYSITSNYYWNWIRQFPGNKLEWMGYIRYDGSNNYNPSLKNRISITRDTSKNQFFLRLNSVTTEDTATYYCTRLDYWGQGTTLTVSS
VL: B4 VL with S12P, T14S, P15L, Q17D, P18Q, T32S, V56I, V88L, Q105S
notes: mouse hybridoma monoclonal; also called muAb10
For B6, in assay [1], the “OD450 Ratio” value was 2.63 ratio to isotype control and the “OD450 with anti-CD40 antibody” value was 2.11 OD450. For the same molecule, the “moDC activation (IL-12p70, pg/mL)” value in assay [2] was determined as 770 pg/mL.

B7: Humanized muAb9 #6 (antibody, V domains shown)
VH: B4 VH with T30S, N66S, I68V
VL: B4 VL with F41Y, F92Y
Consider B7, for which, in assay [3], the “Maximal activation (OD655)” value amounted to 0.54 OD655 and the “NFκB activation EC50 (SEAP, OD655)” value came to 5.95 µg/mL.

B8: Humanized muAb9 #2 (antibody, V domains shown)
VH: B4 VH with I68V
VL: B4 VL
For B8, in assay [3], the “Maximal activation (OD655)” value was found to be 0.27 OD655 and the “NFκB activation EC50 (SEAP, OD655)” value was 0.29 µg/mL.

B9: Humanized muAb9 #4 (antibody, V domains shown)
VH: B4 VH
VL: B4 VL with F41Y, F92Y
Turning to B9, in assay [3], the “Maximal activation (OD655)” value was determined as 0.61 OD655 and the “NFκB activation EC50 (SEAP, OD655)” value was found to be 5.55 µg/mL.

B10: AD164.14.6 (antibody, V domains shown)
VH: B6 VH with R82K, T97A
VL: B4 VL with S12P, T14S, P15L, Q17D, P18Q, V88L, Q105S
notes: mouse hybridoma monoclonal; also called muAb9
B10: in assay [1], the “OD450 Ratio” value is 2.35 ratio to isotype control and the “OD450 with anti-CD40 antibody” value was 1.88 OD450. Further, in assay [2], the “moDC activation (IL-12p70, pg/mL)” value amounted to 878 pg/mL.

B11: AD165.1.2 (antibody, V domains shown)
VH: DVQLQESGPGLVEPSQSLFLTCSVTGYSITTNYNWNWIRQFPGNKLEWMGYIRHDGTNNYNPSLKNRISIIRDTPKNQFFLKLNSVTTEDTAIYFCTRLDYWGQGTSVTVSS
VL: DAVMTQTPLSLPVSLGDQASISCRSSQSLENSYGNTFLNWFLQRPGQSPQLLIYRVSNRFCGVPDRFSGSGSGTDFTLKISRVEAEDLGIYFCLQVTHVPYTFGGGTKLEIK
notes: mouse hybridoma monoclonal; also called muAb5
Turning to B11, in assay [1], the “OD450 Ratio” value is 1.24 ratio to isotype control and the “OD450 with anti-CD40 antibody” value amounted to 0.989 OD450. Further, the “moDC activation (IL-12p70, pg/mL)” value in assay [2] was 720 pg/mL.

B12: AD163.9.3 (antibody, V domains shown)
VH: QVQLQQPGAELVKPGASVKMSCKASGYTFTSYWITWVKQRPGQGLEWIGEINPGSGSTNYNEKFKSKATLTVDTSSSTAYMQLSSLTSEDSAVYYCARNRGTGDYWGQGTTLTVSS
VL: DVVMTQTPLSLPVSLGDQASISCRSSQSLVHSYGNTYLHWYLQKPGQSPKFLIYKVSNRISGVPDRLSGSGSGTDFTLKISRVEPEDLGVYFCSQSTHVPYTFGGGTKLEIK
notes: mouse hybridoma monoclonal; also called muAb1
With B12, in assay [1], the “OD450 Ratio” value was 2.22 ratio to isotype control and the “OD450 with anti-CD40 antibody” value worked out at 1.78 OD450. The “moDC activation (IL-12p70, pg/mL)” value in assay [2] is 2220 pg/mL.

B13: AD166.4.4 (antibody, V domains shown)
VH: QVQLQQSGAELMKPGASAKLSCKATGYTFTGYWIQWVKQRPGHGLEWIGEILPGGDHTKYNEKFRGKATFTSDTSSNTVYMQLSSLTTEDSAIYYCARVGGDYWGQGTTLTVSS
VL: B12 VL with H31N, Y33N, G34E, F51L, S57F, I60Y, L67F, P85A, S94F, Y101W
notes: mouse hybridoma monoclonal; also called muAb2
For the molecule B13, in assay [1], the “OD450 Ratio” value was 1.28 ratio to isotype control and the “OD450 with anti-CD40 antibody” value came to 1.02 OD450. Also, the “moDC activation (IL-12p70, pg/mL)” value in assay [2] was determined as 0 pg/mL.

B14: Humanized muAb6 #1 (antibody, V domains shown)
VH: EVQLVQSGAEVKKPGSSVKVSCKASGYTFTSYWMHWVRQAPGQGLEWIGNIDPSNGETHYNQKFKDRATLTVDKSTSTAYMELSSLRSEDTAVYYCARERIYYSGSTYDGYFDVWGQGTTVTVSS
VL: DIQLTQSPSFLSASVGDRVTITCSASSSLSYMHWYQQKPGKSPKRWIYDTSKLASGVPSRFSGSGSGTEYTLTISSLQPEDFATYYCQQWSSNPWTFGGGTKVEIK
For the molecule B14, in assay [3], the “Maximal activation (OD655)” value worked out at 0.26 OD655 and the “NFκB activation EC50 (SEAP, OD655)” value came out at 1.09 µg/mL.

B15: Humanized muAb6 #2 (antibody, V domains shown)
VH: B14 VH with A68V, L70I
VL: B14 VL
In the case of B15, in assay [3], the “Maximal activation (OD655)” value came to 0.2 OD655 and the “NFκB activation EC50 (SEAP, OD655)” value amounted to 1.21 µg/mL.

B16: Humanized muAb6 #3 (antibody, V domains shown)
VH: B14 VH with N61A, K65Q, D66G, A68V, L70I
VL: B14 VL
Turning to B16, in assay [3], the “Maximal activation (OD655)” value is 0.32 OD655 and the “NFκB activation EC50 (SEAP, OD655)” value turned out to be 4.31 µg/mL.

B17: CP-870,893 (antibody, human IgG2, kappa, V domains shown)
VH: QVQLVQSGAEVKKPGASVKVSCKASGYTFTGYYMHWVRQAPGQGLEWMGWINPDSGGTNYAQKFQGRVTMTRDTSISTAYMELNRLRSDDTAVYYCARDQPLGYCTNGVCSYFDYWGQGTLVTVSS
VL: DIQMTQSPSSVSASVGDRVTITCRASQGIYSWLAWYQQKPGKAPNLLIYTASTLQSGVPSRFSGSGSGTDFTLTISSLQPEDFATYYCQQANIFPLTFGGGTKVEIKR
B17: in assay [4], the “NFκB activity EC50; HEK293 blue CD40 reporter cells co-cultured with CHO cells expressing CD16F” value came out at 30 pM, the “NFκB activity EC50; HEK293 blue CD40 reporter cells co-cultured with CHO cells expressing CD16V” value is 20 pM, the “NFκB activity EC50; HEK293 blue CD40 reporter cells co-cultured with CHO cells expressing CD32a” value was 20 pM and the “NFκB activity EC50; HEK293 blue CD40 reporter cells co-cultured with CHO cells expressing CD32b” value was 20 pM. Also, in assay [4], the “NFκB activity EC50; HEK293 blue CD40 reporter cells co-cultured with CHO cells expressing CD64” value stood at 20 pM and the “NFκB activity EC50; HEK293 blue CD40 reporter cells co-cultured with FcγR negative CHO cells” value was 30 pM.

B18: AD163.10.7 (antibody, V domains shown)
VH: LVQPGGSLSLSCAASGFTFSDYYMSWVRQPPGKALEWLGFIRNKANGYTTEFSASVKGRFTISRDNSQSILYLQMNALRAEDSATYYCARYGGLRQGWYFDVWGTGTTVTVSS
VL: DIQMTQTTSSLSASLGDRVTISCRASQDIRNYLNWYQQKPDGTVKLLIYYTSRLHSGVPSRFSGSGSGTDYSLTISNLEQEDIATYFCQQGKTLPWTFGGGSKLEMK
notes: mouse hybridoma monoclonal; also called muAb4
B18: in assay [1], the “OD450 Ratio” value was 1.68 ratio to isotype control and the “OD450 with anti-CD40 antibody” value was 1.34 OD450. The “moDC activation (IL-12p70, pg/mL)” value in assay [2] came out at 1320 pg/mL.

B19: AD175.14.11 (antibody, V domains shown)
VH: EVQLQQSGPELVKPGASVKISCKASGYTFTDYYMNWVKQSHGKSLEWIGDINPNNGGTSYNQKFKGKATLTVDKSSSTAYMELRSLTSEDSAVYYCARRGGLGRGTYALDYWGQGTSVTVSS
VL: B18 VL with R30S, L46P, S56L, K92N, W96L, G100A, S102T, M106L
notes: mouse hybridoma monoclonal; also called muAb3
On to B19, for which, in assay [1], the “OD450 Ratio” value was 0.09 ratio to isotype control and the “OD450 with anti-CD40 antibody” value amounted to 0.068 OD450. Besides, the “moDC activation (IL-12p70, pg/mL)” value in assay [2] stood at 0 pg/mL.
